Data from patent US20200199241A1 (Chugai, published 2020).
Substitutions are numbered along the chain they refer to.

B1: IgG1-F1080 (antibody)
heavy: QVQLQESGPGLVKPSETLSLTCAVSGHSISHDHAWSWVRQPPGEGLEWIGFISYSGITNYNPSLQGRVTISRDNSKNTLYLQMNSLRAEDTAVYYCARSLARTTAMDYWGEGTLVTVSSASTKGPSVFPLAPSSKSTSGGTAALGCLVKDYFPEPVTVSWNSGALTSGVHTFPAVLQSSGLYSLSSVVTVPSSSLGTQTYICNVNHKPSNTKVDKKVEPKSCDKTHTCPPCPAPELLGGPSVFLFPPKPKDTLYISRTPEVTCVVVDVSHEDPEVKFNWYVDGVEVHNAKTKPREEQYNSTYRVVSVLTVLHQDWLNGKEYKCKVSNKALPAPIEKTISKAKGQPREPQVYTLPPSRDELTKNQVSLTCLVKGFYPSDIAVEWESNGQPENNYKTTPPVLDSDGSFFLYSKLTVDKSRWQQGNVFNCSVMHEALHYHYTQKSLSLSP
light: not shown
notes: EU numbering; copies: 2 + 2
B2: IgG1-F1130 (antibody)
heavy: B1 heavy with T309A, Q313A, N426S, Y438V
light: not shown
notes: EU numbering; copies: 2 + 2
B3: IgG1-F1144 (antibody)
heavy: B1 heavy with L237R, S241K, T252V, T309Q, V310P, Q313A, N426S, Y438V, Q440R, S442E
light: not shown
notes: EU numbering; copies: 2 + 2
B4: IgG1-F1081 (antibody)
heavy: B1 heavy with N426S, Y438N, Q440T
light: not shown
notes: EU numbering; copies: 2 + 2
B5: IgG1-F1138 (antibody)
heavy: B1 heavy with L237R, S241K, N426S, Y438V, Q440R, S442E
light: not shown
notes: EU numbering; copies: 2 + 2
B6: IgG1-F1131 (antibody)
heavy: B1 heavy with L237R, S241K, V424E, N426S, Y438V
light: not shown
notes: EU numbering; copies: 2 + 2
B7: IgG1-F1123 (antibody)
heavy: B1 heavy with T252V, T309Q, V310P, Q313A, N426S, Y438V, S442E
light: not shown
notes: EU numbering; copies: 2 + 2
B8: IgG1-F1103 (antibody)
heavy: B1 heavy with S241D, T309Q, Q313A, K328D, L330Y, N426S
light: not shown
notes: EU numbering; copies: 2 + 2
B9: IgG1-F1145 (antibody)
heavy: B1 heavy with T252V, T309Q, Q313A, N426S, Y438V, Q440R, S442E
light: not shown
notes: EU numbering; copies: 2 + 2
B10: IgG1-F1097 (antibody)
heavy: B1 heavy with G387N, P389S, N426S
light: not shown
notes: EU numbering; copies: 2 + 2
B11: IgG1-F1136 (antibody)
heavy: B1 heavy with L237R, S241K, V424E, N426R, Y438V
light: not shown
notes: EU numbering; copies: 2 + 2
B12: IgG1-F1126 (antibody)
heavy: B1 heavy with T309A, N426S, Y438V
light: not shown
notes: EU numbering; copies: 2 + 2
B13: IgG1-F1114 (antibody)
heavy: B1 heavy with N426S, Y438V, S442Q
light: not shown
notes: EU numbering; copies: 2 + 2
B14: IgG1-F1143 (antibody)
heavy: B1 heavy with L237R, S241K, V424S, N426R, Y438V, Q440R, S442E
light: not shown
notes: EU numbering; copies: 2 + 2
B15: IgG1-F1122 (antibody)
heavy: B1 heavy with T252V, T309Q, V310P, Q313A, N426S, Y438V, Q440R
light: not shown
notes: EU numbering; copies: 2 + 2
B16: IgG1-F1127 (antibody)
heavy: B1 heavy with Q313A, N426S, Y438V
light: not shown
notes: EU numbering; copies: 2 + 2
B17: IgG1-F1142 (antibody)
heavy: B1 heavy with L237R, S241K, V424E, N426R, Y438V, Q440R, S442E
light: not shown
notes: EU numbering; copies: 2 + 2
B18: IgG1-F1098 (antibody)
heavy: B1 heavy with S241D, N426S
light: not shown
notes: EU numbering; copies: 2 + 2
B19: IgG1-F1124 (antibody)
heavy: B1 heavy with T252V, T309Q, V310P, Q313A, N426S, Y438V, Q440R, S442E
light: not shown
notes: EU numbering; copies: 2 + 2
B20: IgG1-F1139 (antibody)
heavy: B1 heavy with L237R, S241K, Y438V
light: not shown
notes: EU numbering; copies: 2 + 2
B21: IgG1-F1108 (antibody)
heavy: B1 heavy with V424K, N426S, Y438V
light: not shown
notes: EU numbering; copies: 2 + 2
B22: IgG1-F1128 (antibody)
heavy: B1 heavy with Q313H, N426S, Y438V
light: not shown
notes: EU numbering; copies: 2 + 2
B23: IgG1-F1140 (antibody)
heavy: B1 heavy with V424E, N426R, Y438V, Q440R, S442E
light: not shown
notes: EU numbering; copies: 2 + 2
B24: IgG1-F1102 (antibody)
heavy: B1 heavy with T309Q, Q313A, K328D, L330Y, N426S
light: not shown
notes: EU numbering; copies: 2 + 2
B25: IgG1-F1105 (antibody)
heavy: B1 heavy with V424S, N426R, Y438V
light: not shown
notes: EU numbering; copies: 2 + 2
B26: IgG1-F1118 (antibody)
heavy: B1 heavy with T252V, T309Q, V310P, Q313A, Y438V
light: not shown
notes: EU numbering; copies: 2 + 2
B27: IgG1-F1082 (antibody)
heavy: B1 heavy with N426S, Q440N
light: not shown
notes: EU numbering; copies: 2 + 2
B28: IgG1-F1115 (antibody)
heavy: B1 heavy with Y438V
light: not shown
notes: EU numbering; copies: 2 + 2
B29: IgG1-F1133 (antibody)
heavy: B1 heavy with L237R, S241K, N426R, Y438V
light: not shown
notes: EU numbering; copies: 2 + 2
B30: IgG1-F1121 (antibody)
heavy: B1 heavy with T252V, T309Q, V310P, Q313A, V424E, N426R, Y438V
light: not shown
notes: EU numbering; copies: 2 + 2
B31: IgG1-F1106 (antibody)
heavy: B1 heavy with N426S, Y438V, Q440R, S442E
light: not shown
notes: EU numbering; copies: 2 + 2
B32: IgG1-F1101 (antibody)
heavy: B1 heavy with S241D, T309Q, Q313A, N426S
light: not shown
notes: EU numbering; copies: 2 + 2
B33: IgG1-F1148 (antibody)
heavy: B1 heavy with L237R, S241K, T309Q, Q313A, N426S, Q440R, S442E
light: not shown
notes: EU numbering; copies: 2 + 2
B34: IgG1-F1129 (antibody)
heavy: B1 heavy with T309Q, Q313H, N426S, Y438V
light: not shown
notes: EU numbering; copies: 2 + 2
B35: IgG1-F1137 (antibody)
heavy: B1 heavy with L237R, S241K, V424S, N426R, Y438V
light: not shown
notes: EU numbering; copies: 2 + 2
B36: IgG1-F1153 (antibody)
heavy: B1 heavy with L237R, S241K, T252V, T309Q, Q313A, Y438V
light: not shown
notes: EU numbering; copies: 2 + 2
B37: IgG1-F1119 (antibody)
heavy: B1 heavy with T252V, T309Q, V310P, Q313A, V424E, N426S, Y438V
light: not shown
notes: EU numbering; copies: 2 + 2
B38: IgG1-F1107 (antibody)
heavy: B1 heavy with V424D, N426S, Y438V
light: not shown
notes: EU numbering; copies: 2 + 2
B39: IgG1-F1141 (antibody)
heavy: B1 heavy with V424S, N426R, Y438V, Q440R, S442E
light: not shown
notes: EU numbering; copies: 2 + 2
B40: IgG1-F1094 (antibody)
heavy: B1 heavy with N426S, S444N
light: not shown
notes: EU numbering; copies: 2 + 2
B41: IgG1-F1111 (antibody)
heavy: B1 heavy with N426K, Y438V
light: not shown
notes: EU numbering; copies: 2 + 2
B42: IgG1-F1125 (antibody)
heavy: B1 heavy with T309Q, N426S, Y438V
light: not shown
notes: EU numbering; copies: 2 + 2
B43: IgG1-F1100 (antibody)
heavy: B1 heavy with S241D, K328D, L330Y, N426S
light: not shown
notes: EU numbering; copies: 2 + 2
B44: IgG1-F1109 (antibody)
heavy: B1 heavy with V424T, N426S, Y438V
light: not shown
notes: EU numbering; copies: 2 + 2
B45: IgG1-F1134 (antibody)
heavy: B1 heavy with L237R, S241K, N426S, Y438V, Q440R
light: not shown
notes: EU numbering; copies: 2 + 2
B46: IgG1-F1116 (antibody)
heavy: B1 heavy with T309Q, Q313A
light: not shown
notes: EU numbering; copies: 2 + 2
B47: IgG1-F1132 (antibody)
heavy: B1 heavy with L237R, S241K, V424S, N426S, Y438V
light: not shown
notes: EU numbering; copies: 2 + 2
B48: IgG1-F1146 (antibody)
heavy: B1 heavy with L237R, S241K, T252V, T309Q, Q313A, N426S, Y438V, Q440R, S442E
light: not shown
notes: EU numbering; copies: 2 + 2
B49: IgG1-F1095 (antibody)
heavy: B1 heavy with S385N, G387S, N426S
light: not shown
notes: EU numbering; copies: 2 + 2
B50: IgG1-F1135 (antibody)
heavy: B1 heavy with L237R, S241K, N426S, Y438V, S442E
light: not shown
notes: EU numbering; copies: 2 + 2
B51: IgG1-F1120 (antibody)
heavy: B1 heavy with T252V, T309Q, V310P, Q313A, N426R, Y438V
light: not shown
notes: EU numbering; copies: 2 + 2
B52: IgG1-F1104 (antibody)
heavy: B1 heavy with V424E, N426R, Y438V
light: not shown
notes: EU numbering; copies: 2 + 2
B53: IgG1-F1110 (antibody)
heavy: B1 heavy with V424Q, N426S, Y438V
light: not shown
notes: EU numbering; copies: 2 + 2
B54: IgG1-F1083 (antibody)
heavy: B1 heavy with N426S, S442N
light: not shown
notes: EU numbering; copies: 2 + 2
B55: IgG1-F1112 (antibody)
heavy: B1 heavy with N426S, Y438V, Q440K
light: not shown
notes: EU numbering; copies: 2 + 2
B56: IgG1-F1152 (antibody)
heavy: B1 heavy with L237R, S241K, T309Q, Q313A
light: not shown
notes: EU numbering; copies: 2 + 2
B57: IgG1-F1147 (antibody)
heavy: B1 heavy with T309Q, Q313A, N426S, Q440R, S442E
light: not shown
notes: EU numbering; copies: 2 + 2
B58: IgG1-F1151 (antibody)
heavy: B1 heavy with L237R, S241K
light: not shown
notes: EU numbering; copies: 2 + 2
B59: IgG1-F1117 (antibody)
heavy: B1 heavy with T252V, T309Q, Q313A, Y438V
light: not shown
notes: EU numbering; copies: 2 + 2
B60: IgG1-F1096 (antibody)
heavy: B1 heavy with Q388T, N426S
light: not shown
notes: EU numbering; copies: 2 + 2

target: T1, soluble human FcRn complexed with β2-microglobulin (human, UniProt P61769 21-119, limits assumed); assay: Biacore SPR, pH 7.0;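 note: test antibodies captured on a Protein L chip with human FcRn flowed over as analyte, KD obtained as the ratio of dissociation to association rate constants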
T1 construct: also called hFcRn
T1 sequence (chain, as listed by the source limits assumed, chain 1 of 2): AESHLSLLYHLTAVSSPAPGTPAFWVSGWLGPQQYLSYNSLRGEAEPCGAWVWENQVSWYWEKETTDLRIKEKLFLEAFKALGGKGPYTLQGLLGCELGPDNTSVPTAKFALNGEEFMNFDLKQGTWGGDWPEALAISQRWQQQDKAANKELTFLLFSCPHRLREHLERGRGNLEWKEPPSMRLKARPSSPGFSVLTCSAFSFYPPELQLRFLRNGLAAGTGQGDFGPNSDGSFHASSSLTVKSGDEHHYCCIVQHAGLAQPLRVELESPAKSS
T1 sequence (P61769 21-119 limits assumed, chain 2 of 2): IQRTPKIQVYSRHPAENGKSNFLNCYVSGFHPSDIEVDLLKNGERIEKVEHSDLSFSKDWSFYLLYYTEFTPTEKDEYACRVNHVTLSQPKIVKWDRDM

Binder | Kd [nM]
B1 | 319
B2 | 55.4
B3 | 14.4
B4 | 620
B5 | 165
B6 | 129
B7 | 9.55
B8 | 61.1
B9 | 52.3
B10 | 282
B11 | 163
B12 | 89.5
B13 | 131
B14 | 198
B15 | 13.7
B16 | 79.4
B17 | 187
B18 | 258
B19 | 12.2
B20 | 152

Binder | Kd [nM]
B21 | 126
B22 | 117
B23 | 162
B24 | 64.6
B25 | 154
B26 | 13.2
B27 | 276
B28 | 135
B29 | 158
B30 | 10.4
B31 | 142
B32 | 65.9
B33 | 76.3
B34 | 44.8
B35 | 158
B36 | 48.5
B37 | 10.3
B38 | 123
B39 | 177
B40 | 260

Binder | Kd [nM]
B41 | 165
B42 | 51.8
B43 | 241
B44 | 127
B45 | 166
B46 | 74.4
B47 | 140
B48 | 62.4
B49 | 286
B50 | 126
B51 | 10.4
B52 | 177
B53 | 133
B54 | 345
B55 | 123
B56 | 73.8
B57 | 71.9
B58 | 251
B59 | 48.7
B60 | 272
